Measured values: patent US20260062490A1 (Innovent, published 2026)
Where a chain is given by its changes, count along the chain named. Names may count otherwise. Each block holds one binder with its values, some of them ahead of it.

Biological target: T1, Human Her2 (Human, UniProt P04626 23-652)
T1 construct: also called antigen Her2
Assay: BLI (ForteBio), antibody loaded on ProA sensors, antigen fusion protein in solution, 30 degrees
Description: Biolayer Interferometry (BLI) technology was used to test the equilibration dissociation constant (KD) of bispecific antibody binding to the respective antigens in the present disclosure. The BLI method affinity test was performed using an existing method (Estep, P et al., High throughput solution Based measurement of antibody-antigen affinity and epitope binning. MAbs, 2013.5 (2): Pages 270-8).
Half an hour before the start of the experiment, a suitable number of ProA (ForteBio, 18-5010) sensors based on the sample size were soaked in SD buffer (PBS 1×, BSA 0.1%, Tween-20 0.05%). 100 μL of SD buffer and antigen fusion protein were taken and added to a 96-well black polystyrene half-area microplate (Greiner, 675076), respectively. The sensor position was selected based on the sample position and layout. The instrument setting parameters are as follows: Run steps: Baseline, Loading ˜1 nm, Baseline, Association and Dissociation; the run time of each step depended on the sample binding and dissociation rate, and the rotational speed was 400 rpm and temperature was 30 degrees. ForteBio analysis software was used to analysis the KD value.

Kd: 0.805 nM | koff: 0.0002 s⁻¹ | kon: 249000 M⁻¹ s⁻¹
B1: Her2/Hel bispecific antibody, Combination 1 in Table 3 / Table 9 / Table 10 (anti-Her2: Q39K, F126C, C220S / Q38D, Q124C, C214S; anti-Hel: Q39D / Q38K) (bispecific antibody, human IgG1, kappa, L234A L235A)
heavy 1: not shown
light 1: not shown
heavy 2: EVRLLESGGGLVQPGGSLRLSCAASGFTFSNYAMGWVRDAPGKGLEWVSAISGSGGSTYYADSVKGRFTTSRDDSKNALYLQMNSLRAEDTAVYYCARGGPGWYAADVWGQGTTVTVSSASTKGPSVFPLAPSSKSTSGGTAALGCLVKDYFPEPVTVSWNSGALTSGVHTFPAVLQSSGLYSLSSVVTVPSSSLGTQTYICNVNHKPSNTKVDKKVEPKSCDKTHTCPPCPAPEAAGGPSVFLFPPKPKDTLMISRTPEVTCVVVDVSHEDPEVKFNWYVDGVEVHNAKTKPREEQYNSTYRVVSVLTVLHQDWLNGKEYKCKVSNKALPAPIEKTISKAKGQPREPQVCTLPPSRDELTKNQVSLSCAVKGFYPSDIAVEWESNGQPENNYKTTPPVLDSDGSFFLVSKLTVDKSRWQQGNVFSCSVMHEALHNHYTQKSLSLSPGK
light 2: DIQMTQSPSSLSASVGDRVTITCRASQSISSYLNWYQKKPGKAPKLLIYAASSLQSGVPSRFSGSGSGTDFTLTISSLQPEDFATYYCQQADLPAFAFGGGTKVEIKRTVAAPSVFIFPPSDEQLKSGTASVVCLLNNFYPREAKVQWKVDNALQSGNSQESVTEQDSKDSTYSLSSTLTLSKADYEKHKVYACEVTHQGLSSPVTKSFNRGEC

Kd: 0.72 nM | koff: 0.0002 s⁻¹ | kon: 278000 M⁻¹ s⁻¹
B2: Her2/Hel bispecific antibody, Combination 5 in Table 3 / Table 9 / Table 10 (anti-Her2: Y91K, F126C, C220S / P44D, Q124C, C214S; anti-Hel: Y91D / P44K) (bispecific antibody, human IgG1, kappa, L234A L235A)
heavy 1: not shown
light 1: not shown
heavy 2: B1 heavy 2 with D39Q, Y95D
light 2: B1 light 2 with K38Q, P44K

Kd: 0.764 nM | koff: 0.0002 s⁻¹ | kon: 262000 M⁻¹ s⁻¹
B3: Her2/Hel bispecific antibody, Combination 4 in Table 3 / Table 9 / Table 10 (anti-Her2: Y91K, F126C, C220S / A43D, Q124C, C214S; anti-Hel: Y91D / A43K) (bispecific antibody, human IgG1, kappa, L234A L235A)
heavy 1: not shown
light 1: not shown
heavy 2: B1 heavy 2 with D39Q, Y95D
light 2: B1 light 2 with K38Q, A43K

Kd: 0.758 nM | koff: 0.0002 s⁻¹ | kon: 264000 M⁻¹ s⁻¹
B4: Her2/Hel bispecific antibody, Combination 3 in Table 3 / Table 9 / Table 10 (anti-Her2: L45K, F126C, C220S / P44D, Q124C, C214S; anti-Hel: L45D / P44K) (bispecific antibody, human IgG1, kappa, L234A L235A)
heavy 1: not shown
light 1: not shown
heavy 2: B1 heavy 2 with D39Q, L45D
light 2: B1 light 2 with K38Q, P44K

Kd: 0.748 nM | koff: 0.0002 s⁻¹ | kon: 268000 M⁻¹ s⁻¹
B5: Her2/Hel bispecific antibody, Combination 2 in Table 3 / Table 9 / Table 10 (anti-Her2: L45K, F126C, C220S / Y87D, Q124C, C214S; anti-Hel: L45D / Y87K) (bispecific antibody)
heavy 1: not shown
light 1: not shown
heavy 2: B1 heavy 2 with D39Q, L45D
light 2: B1 light 2 with K38Q, Y87K
